# B1: IL-1alpha: pro-inflammatory cytokine used to stimulate astrocytes (protein, UniProt P01583 113-271, looked up)
# Interleukin-1 alpha: SAPFSFLSNVKYNFMRIIKYEFILNDALNQSIIRANDQYLTAAALHNLDEAVKFDMGAYKSSKDDAKITVILRISKTQLYVTAQDEDQPVLLKEMPEIPKTITGSETNLLFFWETHGTKNYFTSVAHPNLFIATKQDYWVCLAGGPPSITDFQILENQA
# B2: IFN-gamma: cytokine used to stimulate astrocytes (protein, UniProt P01579 24-161, looked up)
# Interferon gamma: QDPYVKEAENLKKYFNAGHSDVADNGTLFLGILKNWKEESDRKIMQSQIVSFYFKLFKNFKDDQSIQKSVETIKEDMNVKFFNSNKKKRDDFEKLTNYSVTDLNVQRKAIHELIQVMAELSPAAKTGKRKRSQMLFRG
# Test system: Astrocytes
# Assay: Luminex assay of proteins secreted by astrocytes after cytokine stimulation
# Assay type: cell-based, human
# Settings: stimulation in basal medium for 24 hours; average of four lots
# Protocol: FIGS. 8A-8J: Astrocytes from four lots were thawed and cultured for 7 days in Astro 3 media, before stimulation in basal medium for 24 hours. Supernatant was collected and assayed using a custom Luminex assay from R&D on the FLEXMAP 3D instrument, according to manufacturer's instructions. Each condition was run in duplicate, with the average of all four lots compared to the control (unstimulated) condition to calculate fold change. Error bars are +/−1 SEM. […] The combination of IFN-gamma with TNF-alpha produced the highest fold-change over control, with over 84-fold secretion of IL-1ra compared to control. IL-1ra binds to cell surface IL-1 receptors, blocking binding of pro-inflammatory IL-1alpha and IL-1beta. […] TNF-alpha combined with either IL-1alpha or IL-1beta increased IL-6 secretion by over 3300-fold compared to control. IL-6 attracts pro-inflammatory T cells and promotes demyelination. […] TNF-alpha combined with either IL-1alpha or IL-1beta increased IL-8 secretion by over 12,000-fold compared to control. IL-8/CXCL8 is secreted by astrocytes to attract pro-inflammatory immune cells after insults. This analyte also plays a role in recruitment and differentiation of oligodendrocyte precursor cells (OPCs) to promote remyelination. […] TNF-alpha alone, or combined with IL-1alpha, IL-1beta or IFN-gamma increased IL-10 secretion by over 1000-fold compared to control. IL-10 is secreted by astrocytes to reduce iNos activity and reduce astrogliosis. […] TNF-alpha alone, or combined with IL-1alpha, IL-1beta or IFN-gamma increased CCL5/RANTES secretion by over 2500-fold compared to control. CCL5/RANTES controls the movements of peripheral immune cells. […] TNF-alpha combined with IL-1alpha or IL-1beta increased CCL7 secretion by over 15,000-fold compared to control. CCL7 is important for astrocyte-microglia interactions and induces microglia activation. […] Stimulation with IL-1alpha or TNF-alpha alone increased CCL20 secretion by over 18-fold over unstimulated control. TNF-alpha combined with IL-1alpha, IL-1beta or IFN-gamma increased CCL20 secretion by over 100-fold compared to control. CCL20 is secreted by astrocytes in response to pro-inflammatory stimuli and attracts T-cells, B-cells and DCs. […] Stimulation with IL-1alpha increased CXCL1 secretion by 84-fold over unstimulated control. TNF-alpha combined with IL-1alpha or IL-1beta increased CXCL1 secretion by over 450-fold compared to control. CXCL1 is secreted by astrocytes to recruit neutrophils to the site of infection, and increases BBB permeability. […] CXCL2 activates CXCR2, found on oligodendrocytes and OPCs, which increases OPC proliferation and differentiation. […] CXCL5 is secreted by astrocytes in response to injury and activates microglia, resulting in decreased microglia phagocytosis and inhibition.
# Astrocytes from four lots were thawed and cultured for 7 days in Astro 3 media, before stimulation in basal medium for 24 hours. Supernatant was collected and assayed using a custom Luminex assay from R&D on the FLEXMAP 3D instrument, according to manufacturer's instructions. […] The combination of IFN-gamma with TNF-alpha produced the highest fold-change over control, with over 84-fold secretion of IL-1ra compared to control. IL-1ra binds to cell surface IL-1 receptors, blocking binding of pro-inflammatory IL-1alpha and IL-1beta.
molecule,measurement,value
TNF-alpha,"CCL7 secretion, fold change over unstimulated control",1184 fold
same,"IL-1ra secretion, fold change over unstimulated control",three
same,"IL-8/CXCL8 secretion, fold change over unstimulated control",898 fold
B1,"CCL5/RANTES secretion, fold change over unstimulated control",156 fold
same,"CCL7 secretion, fold change over unstimulated control",2177 fold
same,"CXCL1 secretion, fold change over unstimulated control",84 fold
same,"CXCL2 secretion, fold change over unstimulated control",379 fold
same,"CXCL5 secretion, fold change over unstimulated control",161 fold
same,"IL-1ra secretion, fold change over unstimulated control",three
same,"IL-6 secretion, fold change over unstimulated control",over 400 fold
same,"IL-8/CXCL8 secretion, fold change over unstimulated control",over 3300 fold
same,"IL-10 secretion, fold change over unstimulated control",over 415 fold
B2,"IL-1ra secretion, fold change over unstimulated control",robust secretion
same,"IL-6 secretion, fold change over unstimulated control",32 fold
same,"IL-10 secretion, fold change over unstimulated control",161 fold

# Reference: patent US20240003871A1, “IPSC-DERIVED ASTROCYTES AND METHODS OF USE THEREOF” (FUJIFILM Cellular Dynamics, Inc., priority 2022, published 2024)
